For one assay, the target named is T1, recombinant human CD73 (human, UniProt P21589 27-549).
T1 construct: Soluble recombinant CD73 (BPS Bioscience stock in the SPR); also called rhuCD73; human CD73, open conformation
T1 sequence: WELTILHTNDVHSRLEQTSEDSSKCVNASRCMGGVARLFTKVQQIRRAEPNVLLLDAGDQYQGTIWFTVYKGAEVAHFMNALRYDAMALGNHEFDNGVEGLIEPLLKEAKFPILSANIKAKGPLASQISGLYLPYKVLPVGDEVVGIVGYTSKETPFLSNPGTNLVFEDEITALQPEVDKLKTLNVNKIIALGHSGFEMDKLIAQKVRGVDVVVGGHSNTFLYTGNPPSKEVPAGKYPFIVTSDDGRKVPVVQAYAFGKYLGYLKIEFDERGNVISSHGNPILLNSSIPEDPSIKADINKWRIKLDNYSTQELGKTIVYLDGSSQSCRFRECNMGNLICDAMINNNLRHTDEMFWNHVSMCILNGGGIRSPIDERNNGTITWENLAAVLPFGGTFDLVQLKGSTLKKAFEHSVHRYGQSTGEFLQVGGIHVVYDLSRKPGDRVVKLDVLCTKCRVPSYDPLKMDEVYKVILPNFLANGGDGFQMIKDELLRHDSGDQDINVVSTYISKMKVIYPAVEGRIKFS
Briefly: enzyme inhibition assay with recombinant full length CD73, adenosine by LC-MS, mixed-inhibition model. The protocol:
Briefly, the inhibition potencies of the agents were measured in an enzyme assay using adenosine ¹³C₁₀, ¹⁵N₅ 5′-monophosphate sodium salt solution (650676, Sigma) as substrate and detecting product, adenosine by LC-MS. Antibody agents were serially diluted in buffer and a volume of 5 μL was transferred to a 96-well plate. 20 μL of 0.5 μM recombinant CD73 in assay buffer (25 mM Tris, 5 mM MgCl₂, 0.005% Brij35 pH 7.5) was added to the plate and pre-incubated for 2 hours at 25° C. The assay was initiated by the addition of a 25 μL solution containing AMP at various concentrations. The reactions were run for 0.5 hr at 25° C. and then quenched with 50 μL of methanol.

Assay [1] has as its target T2, cell surface CD73 on MDA-MB-231 and A375 cells (human, UniProt P21589 27-549).
T2 construct: A375: moderate level; also called cellular CD73
T2 sequence: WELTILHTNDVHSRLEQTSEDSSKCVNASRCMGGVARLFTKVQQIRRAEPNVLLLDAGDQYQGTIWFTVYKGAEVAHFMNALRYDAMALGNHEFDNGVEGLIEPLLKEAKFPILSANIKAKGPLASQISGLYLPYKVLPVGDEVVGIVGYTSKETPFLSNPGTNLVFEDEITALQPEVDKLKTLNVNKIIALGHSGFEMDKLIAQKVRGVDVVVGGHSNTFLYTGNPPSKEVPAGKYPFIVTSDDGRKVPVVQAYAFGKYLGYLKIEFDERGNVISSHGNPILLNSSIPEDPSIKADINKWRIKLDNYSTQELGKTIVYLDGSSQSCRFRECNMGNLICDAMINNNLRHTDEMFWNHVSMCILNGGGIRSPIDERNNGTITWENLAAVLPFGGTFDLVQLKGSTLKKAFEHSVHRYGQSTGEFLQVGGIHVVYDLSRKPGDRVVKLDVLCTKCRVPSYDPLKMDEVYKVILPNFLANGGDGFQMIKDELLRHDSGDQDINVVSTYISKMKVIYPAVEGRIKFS
Briefly: flow cytometry on MDA-MB-231 cells, antibody 30 min on ice, PE-conjugated secondary antibody, GMFI. Here is the method:
The cells were stained with the indicated concentration of antibodies for 30 minutes on ice (FIG. 2A and FIG. 2B). Next, the cells were washed and stained using goat anti-mouse secondary conjugated to phycoerythrin (PE) for 30 minutes on ice. The cells were then washed and analyzed by flow cytometry. Geometric mean fluorescence intensity (GMFI) of CD73 staining was graphed (FIG. 2A and FIG. 2B).

As usually defined, the Ki is the dissociation constant of the complex between target and ligand, obtained from inhibition or displacement. The EC50 (read off the curve) is the concentration needed to bring the measured effect to its halfway point. Lower therefore signals an effect from little substance.

B1: HzCL25 (antibody, human IgG1, kappa, N297A, V domains shown)
VH: EVQLVQSGAEVKKPGESLKISCKGSGYTFTSYGLSWVRQMPGKGLEWMGEIYPGSGNTYYNEKFKGQVTISADKSISTAYLQWSSLKASDTAMYYCARYDYLGSSYGFDYWGAGTTVTVSS
VL: DIVMTQSPDSLAVSLGERATINCKASQDVSTAVAWYQQKPGQPPKLLIYSASYRYSGVPDRFSGSGSGTDFTLTISSLQAEDVAVYYCQQHYNTPYTFGGGTKLEIKR
notes: Humanized IgG1/kappa with N297A (EU); also called HzCL25 IgG; humanized CL25
On to B1, for which the Ki with recombinant human CD73 was 0.3 nM.

B2: CL25_hu_8-5 (antibody, V domains shown)
VH: QVQLVQSGAEVKKPGASVKVSCKASGYTFTSYGLSWVRQATGQGLEWMGEIYPGSGNTYYNEKFKGRVTMTRNTSISTAYMELSSLRSEDTAVYYCARYDYLGSSYGFDYWGAGTTVTVSS
VL: DIVMTQSPDSLAVSLGERATINCKASQDVSTAVAWYQQKPGQPPKLLIYSASYRYSGVPDRFSGSGSGTDFTLTISSLQAEDVAVYYCQQHYNTPYTFGGGTKLEIK
notes: Humanized CL25 variant
On to B2, for which the “EC50 (read off the curve)” value in assay [1] is about 0.06 mg/L.

The values are drawn from patent US20240352143A1 (Incyte, published 2024).
